We go through 19 sequences from the DeepSol protein solubility set.

A short description of the data set: soluble on expression in E. coli; label from the status in PepcDB or PDB records.
For “MTLDLDNMTQAEFDEVMAEIQLQSPNIFQLISDFVNKKVTSVEIDDLLNMKRAETGKALSPLQIQELQYMLEDFSPELIHEALKEAVSQGKANFAYIKVILNRWKQDNLLTVELVRNSRAAREAKKQQTNQLEPTSYEDWIPTQEKPF”, the “soluble on expression in E. coli” value is given as “not soluble”.

As to “MTLDYHQPTTTNTTLPDDIHMKDPEEEEFEEYEDELLEEEEEFDEELEELENSDSASSLVSAGSPHGSSSSNGSHGSSPPLQVQSPSQGSGSSGSPTGQPEKRHICTVCGKGFSYFSILESHKRSHTGEKPYNCHFCQKTFAQKATLQVHERTHTGERPYKCRYCEKTFAQYGTKTVHEKSAHLGIRNYKCPKCDKLLSSPSALYTHKKTHGDKTFRCDFCPKTFALKNYLKLHVKQVHEQNERKHVCVYCNKGFAYAGSLQVHVRTHTGERPYVCKFCPKAFASQGNLQSHERTHTGERPYSCQFCQRTFIQKSQLTAHESTHLTQKHSVNPDSTTADILPVAGSVTDHQMVGNYECTFCNKKYPYASSLYIHMRKHTEKSAYSCDGCGKPYSQKISLNIHQDQCEAFKNRLKTTDSQFSHNCDGCGKSFVQRIALQIHVDSCEPHKNLARLKLSQQQNQNQNSDSESDTEMKICPLPNPPLTLAPTHQQIPPPVNIYAQQPPPNPLGSILGNTSLTPQTLNFGLPSLSSASFSSLNAHAPFTPVELPNSADFGPLTASKPHAVPFHPSEMCLSAFRKVPESSSISGLGSLSTSILSTQLLLQLQHTPDFNYLLNQNLLSSLAGLSGLSATLGPQLQATTPTSANQQPFLMAAPSAVQPLV”, the “soluble on expression in E. coli” value is “not soluble”. “MTLEKKEYGAPGFWPGSMIGRVHAFETPAPLTRAQLDRLRDEFFETRTEGHLEIWTAIRAASHAQEAGDDELAYAIITAVGILPAEVGPAGEGLGERIPFAEQPLDRLLGMICGCCFPAFTRYRTLERVYDQRGFLYETPKECIATPSNVLPDESTEASAR”: the “soluble on expression in E. coli” value is given as “not soluble”. Regarding “MTLHKERRIGRLSVLLLLNEAEESTQVEELERDGWKVCLGKVGSMDAHKVIAAIETASKKSGVIQSEGYRESHALYHATMEALHGVTRGEMLLGSLLRTVGLRFAVLRGNPYESEAEGDWIAVSLYGTIGAPIKGLEHETFGVGINHI”, the “soluble on expression in E. coli” value was “soluble”. With “MTLSIAHLGPPGTYAEQAAVLYVNWLTKSTGDEATLSPYPTISQSLHAVADGQAHLAVVPVENSIEGSVTTTLDALWQLDSLRIQLALVLPIVHTLISCASGLDKIETVYSHPQALAQCQGWLERFLPTVQIVPSNSTTEALQRLEQETTTAAIASSRAAQLYNLPILATGINDYPENCTRFWVVSQGEADAGYQTSKVPTSHTSLAFSMPANTPGALVKPLQIFAQLGINLSRIESRPTKRSLGEYLFFMDLEADVKESQMQSALAELTIHTEILKILGAYNVLPIGAFT”, the “soluble on expression in E. coli” value is “not soluble”. As for “MTLTKGSFTYSSGEEYRGEWKEGRRHGFGQLVFADGGTYLGHFENGLFNGFGVLTFSDGSRYEGEFSQGKFNGVGVFIRYDNMTFEGEFKNGRVDGFGLLTFPDGSHGIPRNEGLFENNKLLRREKCSAVVQRAQSASKSARNLTA”, the “soluble on expression in E. coli” value was “soluble”.

On to “MTLTMGFIGFGKSANRYHLPYLKTRNNIKVKTIFVRQINEELAAPYEERGVYFTTDLDELLNDKEIQVVTICTPAHTHYELAKKVILAGKSVIVEKPFCDTVEHAKELLALGREKGVVVMPYQNRRFDGDFLAVKQVVEQGFLGDIIEIESHIDYFRPGSITHEAPKEEGSFYSLGIHTMDRMISLFGRPNTVTYDIRNNEVEGAVDNYFDVGLHYGNQLKIKLKTNHIVAKDYPRFIVHGTNGSFIKYGEDQQENDLKAGIMPESAGFGEDSPMYYGIAKYRNANGDWIEKQIKTPLGDYGRFYDAAYDTIVNGAPKLVKDEEAVTNIEILENGFAAPSPSVYKLEALHLNELEHHHHHH”, for which the “soluble on expression in E. coli” value is reported as “soluble”. Regarding “MTLTQIHALLAVLEYGGFTEASKRLYMTQSAVSQAISALEEELGVDILIRERRKEIELTAAGSRIVRHLRAIQRDVNAVKEIAEQEKKNPARTLRIGCFPSACACILPGVIRYFESHHPNVKIIPYEENSTAIIDSLQDGSIDAGFVPFPVNGMYCVPIYRDKFTVVVPENHPLAANSTVTVEELMDEPLIVSKGRYELSIMALFKEKGIEPIFKYEFNHPDTALNFIRQGLGIALLPELTLKATTGKLCSVALEPTFYRQISLLAKEPPVEGSPLFLLQKCMETLTDEGLL”, the “soluble on expression in E. coli” value is given as “not soluble”.

In the case of “MTLVSIVAPNLIEQGKVMEMLQGGRDNAIYRTGDRVSRPASSWTMTVHQLLNHLHSNGFTQCPKVIGIEGGKEWLSFVEGDTFNYPLQGSIASVTALLSAAKMLRRMHDASEDFLISHQSEVCHWMLPDRVPQEVICHGDFMPYNVALNGETVVGVFDFDTAHPAPRLWDVAFSIYGWAPFKTDENDRMGNLEQQIQRAKLFCDAYGCSKLERENLVDVMTLRLTALVDYMRLMASSRDERFQANLEEGHHIAYLQDIDYLRQHHQAITLGMLKER”, the “soluble on expression in E. coli” value was “not soluble”. As for “MTLYRQLLAREKENNPIRVGVIGAGQMGFGMISQIAAIPGMSVVGISDIHVDAAKKAADAYNATATKKEKILLSNDFKEIIHSDLVEVIVDATGVPEVGAKISLETLLAKKQLVLLNVEIDITIGPLMKKLYDSAGLVYTGSDGDEPAAITELYEFSKSMGMEVLVAGKGKNNKLKISANPDSCQVEADGKNMASHMLAAFQDGTKTMAEMNLLSNAIGYVPDVVGMHGISGDVDSVIKDLDLKEQGGILNQFGVVEYVDGLAPGVFVIVKGQNEGVSHELSYLMKKGERDHHILYRPYHLASLETPLTIAKAVLNHDHAIVPMGAPVSETVAVAKKDIAAGERLDGIGGFCVRGVLETHVDMAAEGHIPIGLISGEVVARRNIKAGTFITDEDVSLDESTTVWKLRKLQDETFSN”, the “soluble on expression in E. coli” value is given as “not soluble”. “MTMDLRTGLAALALAAGLALPAAPALAEMSEITIARQPSIGHLPLMIMQERRLIETMAEAEGLGEVKVNYATFAGGSNMNDALLSNTIQFAAGGVPPLILLWSKTAGTSNEVKGVAAMNSMPLLMNVNREDIRSIEDFKPGDKIALPSVKVSVQAMVLQMAAAKIWGDENYGKLDPLTVSMSHPDGLAALLARQEVTAHFTASPAQDMALREPGVHTVLNSFDVMGGPVTFNVVWTTKAFHDDNPKLFDIFRRALAQAVEVVNEDPAEAVQVYLRQAGNATDPELLASILADPQVDYTVEPSGIDKYLDFMRRIGTVKDNGQPWEAMFFE”: the “soluble on expression in E. coli” value is on record as “not soluble”. With “MTNHEQVLTDYLAAFIEELVQAGVKEAIISPGSRSTPLALMMAEHPTLKIYVDVDERSAGFFALGLAKASKRPVVLLCTSGTAAANYFPAVVEANLSQIPLIVLTADRPHELRNVGAPQAMDQLHLYGSHVKDFTDMALPENSDEMLRYAKWHSSRAVDIAMKTPRGPVHLNFPLREPLVPILEPSPFTATGKKHHHVH”, the “soluble on expression in E. coli” value is “not soluble”. As to “MTNKLTSLTIAFVGALSSMGAQAHGWVEYPSARQNTCYLDGGFWDNTIPNQACQAAYDESGAFPFVQRNEVAANVPNYQDMAHVQAIVRDGHLCSAGDAAKSGLNLGSLHWQKTAIALDANNQIELIFNATAPHNPSYWQFYLSNENYDPTVPLTWGDLVLIDTAGNVPVGEDKKYRIKITLPADRSDSAVLYTRWQREDAAGEGFYNCSDISFNGSGTTPPKPTDPVEPPQYSDLGYYINQGFGPVESGDTVRFRTFDSTGAETTDISLAITANNTSTWSAELAGQFNQLKNKEWFIGIWHQEMNHYMYDSNNIYANKVFAPTANVSYQLSLIKADITPPVEPPVEPSNPWDKTATYNAGDIVDHNGKAWVAQWWTKGEEPGTTGEWGVWR”, the “soluble on expression in E. coli” value is “not soluble”. Take “MTPFSDAAKNNTVKTDGDSVSGRDLPITKISEDRFERSAYSAQLANIICDVAPWGASTVFSLTGQWGSGKTSLVNLIRSEESLSNEKWTIVDFNPWVASDPQSLIEEFYRVIVGTVPDDKTGQKIKTVLQKTFSTIGSIAGGVGGFGVLEALALSKGVDAANAVYKTWKQEQDSWPTLYTRAANHFKDLNKRILIVVDDIDRLHTDELALLMKVIRLLGRFPQVNYLLVYEEESLLTTLARSTAVGGSEDDALRFMEKIVQYPFDVPPLTSFQIEKELSALFDKLFQGVSLSGDPEDFALVKSRMFDVWEKTLVTPRLLHRFAALLTNWTRIYGSGEVNGVDLTILATIRIVFPSVYKRLSRAKEVLLQGLEHHHHHH”: the “soluble on expression in E. coli” value was “not soluble”. The value for “MTPLQQAQLSPQEEAVFDGDAISGSGLRFSELTRPVNLLVMGMSVLPPDVQNPPTETQNLRYLPQVNSFDGLADVMLMVKFDPETKKIAMLSIPRDTRTRIEGHGVRKINAANVEGGPALTATTVSNLLGGVGIDRYIRINVLGVGKLIDALGGVTVYVPKDMKYQDHSQHLYINLKAGKQHLNGDQVLQLLRFRHDELGDIGRIQRQQMVMRALMDQALNPVTVAQLPKILNVVKDNIDTNLTVEELVALVGFGVRTNRTNMQMLMLPGRFSEPNEYNASYWIPSKNGIAKLMAQHFGLESLSENPVNDPTAVRVAIQDSTGSDRSQLRPLINALEKAGYRNVYVANAWTEPLEVTNIIAQQGDGNSAESIRNALGFGEVRVESTGSLNSDISIQVGKDWLQQKSLLEDSIKFLEHHHHHH” was “soluble”; that for “MTPMKTYDLIVIGTGPGGYHAAIRAAQLGLKVLAVEAGEVGGVCLNVGCIPTKALLHAAETLHHLKVAEGFGLKAKPELDLKKLGGWRDQVVKKLTGGVGTLLKGNGVELLRGFARLVGPKEVEVGGERYGAKSLILATGSEPLELKGFPFGEDVWDSTRALKVEEGLPKRLLVIGGGAVGLELGQVYRRLGAEVTLIEYMPEILPQGDPETAALLRRALEKEGIRVRTKTKAVGYEKKKDGLHVRLEPAEGGEGEEVVVDKVLVAVGRKPRTEGLGLEKAGVKVDERGFIRVNARMETSVPGVYAIGDAARPPLLAHKAMREGLIAAENAAGKDSAFDYQVPSVVYTSPEWAGVGLTEEEAKRAGYKVKVGKFPLAASGRALTLGGAEGMVKVVGDEETDLLLGVFIVGPQAGELIAEAALALEMGATLTDLALTVHPHPTLSESLMEAAEAFHKQAIHILNR” was “soluble”.

As for “MTPNRRSTDSYNMLGASFDFDPDFSLLSNKTHKNKNPKPPVKLLPYRHGSNTTSSDSDSYIFNSGSGSSDAETPAPVAPIFISLEDVLLNGQLIDFAIDPSGVKFLEANYPLDSEDQIRKAVFEKFTESTTLFVGLCHSRNGNFIVQKLVELATPAEQRELLRQMIDGGLLAMCKDKFACRVVQLALQKFDHSNVFQLIQELSTFDLAAMCTDQISIHVIQRVVKQLPVDMWTFFVHFLSSGDSLMAVCQDKYGCRLVQQVIDRLAENPKLPCFKFRIQLLHSLMTCIVRNCYRLSSNEFANYVIQYVIKSSGIMEMYRDTIIDKCLLRNLLSMSQDKYASHVIEGAFLFAPPALLHEMMEEIFSGYVKDVESNRDALDILLFHQYGNYVVQQMISICTAALIGKEERELPPAILLLYSGWYEKMKQRVLQHASRLERFSSGKKIIDSVMRHGVPTAAAVNAQAAPSLMELTAQFDAMFPSFLAR”, the “soluble on expression in E. coli” value is “not soluble”. Consider “MTPYMANTKWVDGSVRSDFPQEKMARLYNLNYTIASQVNPHVVPFMQSDASRYRKDILSWPQRILRRQGKVISLGIMDFTRERLGNVPPVRRLLDHGYGIVGQRYYGDVNIIAPFNLRQYAYMLQNPRPHLFKLLQQQGERATLEHHHHHH”, for which the “soluble on expression in E. coli” value is “not soluble”. Consider “MTQEIDIGKYHQLALQKQKEHRKFLATLKKKAPKNLDKIVQEVHTEVFREIDCTKCANCCKILGPLFTESDISRIAKHFRMRLPVFEDMYLRVDEDNDKVFKSMPCPFLGEDNLCFIYDVRPKACREFPHTDRKKIYQINHLTIQNTLICPAVYLFVEKLQERLALEHHHHHH”, for which the “soluble on expression in E. coli” value was “soluble”.
